Test results taken from the Human Domainome abundance scans (Beltran et al. 2025).
± gives the uncertainty stated by the source.

B1: Arginine-glutamic acid dipeptide repeats protein, residues 502 to 543; numbered along this chain, Q9P2R6 (parent)
chain: LKGYACRHCFTTTSKDWHHGGRENILLCTDCRIHFKKYGELP
B2: Peroxisome proliferator-activated receptor delta, residues 71 to 145; numbered along this chain, Q03181 (parent)
chain: NMECRVCGDKASGFHYGVHACEGCKGFFRRTIRMKLEYEKCERSCKIQKKNRNKCQYCRFQKCLALGMSHNAIRF

Variants of: B1
Assay: abundance fitness (aPCA) (normalised: wild type 0, dead -1); higher = more abundant; growth selection in yeast, the domain comes from the species named
Settings: Homo sapiens

Going from QKGYACRHCFTTTSKDWHHGGRENILLCTDCRIHFKKYGELP to IKGYACRHCFTTTSKDWHHGGRENILLCTDCRIHFKKYGELP, the abundance fitness rises from -0.245 ± 0.16 to 0.149 ± 0.1.

FKGYACRHCFTTTSKDWHHGGRENILLCTDCRIHFKKYGELP and RKGYACRHCFTTTSKDWHHGGRENILLCTDCRIHFKKYGELP are within error of each other in abundance fitness: 0.014 ± 0.049 for the first, -0.083 ± 0.34 for the second.

TKGYACRHCFTTTSKDWHHGGRENILLCTDCRIHFKKYGELP and VKGYACRHCFTTTSKDWHHGGRENILLCTDCRIHFKKYGELP are within error of each other in abundance fitness: 0.066 ± 0.06 for the first, 0.054 ± 0.047 for the second.

Compared with MKGYACRHCFTTTSKDWHHGGRENILLCTDCRIHFKKYGELP, SKGYACRHCFTTTSKDWHHGGRENILLCTDCRIHFKKYGELP is lower in abundance fitness: 0.076 ± 0.038 for the first, -0.003 ± 0.037 for the second.

Compared with WKGYACRHCFTTTSKDWHHGGRENILLCTDCRIHFKKYGELP, GKGYACRHCFTTTSKDWHHGGRENILLCTDCRIHFKKYGELP is higher in abundance fitness: -0.187 ± 0.057 for the first, 0.043 ± 0.037 for the second.

Compared with AKGYACRHCFTTTSKDWHHGGRENILLCTDCRIHFKKYGELP, LKGEACRHCFTTTSKDWHHGGRENILLCTDCRIHFKKYGELP is lower in abundance fitness: 0.158 ± 0.23 for the first, -0.135 ± 0.04 for the second.

LKGHACRHCFTTTSKDWHHGGRENILLCTDCRIHFKKYGELP and LKGDACRHCFTTTSKDWHHGGRENILLCTDCRIHFKKYGELP are within error of each other in abundance fitness: -0.084 ± 0.057 for the first, -0.037 ± 0.048 for the second.

LKGGACRHCFTTTSKDWHHGGRENILLCTDCRIHFKKYGELP and LKGKACRHCFTTTSKDWHHGGRENILLCTDCRIHFKKYGELP are within error of each other in abundance fitness: -0.207 ± 0.032 for the first, -0.178 ± 0.055 for the second.

LKGAACRHCFTTTSKDWHHGGRENILLCTDCRIHFKKYGELP and LKGCACRHCFTTTSKDWHHGGRENILLCTDCRIHFKKYGELP are within error of each other in abundance fitness: -0.198 ± 0.039 for the first, -0.117 ± 0.053 for the second.

LKGLACRHCFTTTSKDWHHGGRENILLCTDCRIHFKKYGELP and LKGFACRHCFTTTSKDWHHGGRENILLCTDCRIHFKKYGELP are within error of each other in abundance fitness: -0.109 ± 0.039 for the first, -0.032 ± 0.087 for the second.

LKGIACRHCFTTTSKDWHHGGRENILLCTDCRIHFKKYGELP and LKCYACRHCFTTTSKDWHHGGRENILLCTDCRIHFKKYGELP are within error of each other in abundance fitness: -0.089 ± 0.22 for the first, -0.226 ± 0.062 for the second.

First: LKTYACRHCFTTTSKDWHHGGRENILLCTDCRIHFKKYGELP
Second: LKVYACRHCFTTTSKDWHHGGRENILLCTDCRIHFKKYGELP
The abundance fitness of the first is higher: -0.093 ± 0.045 for the first, -0.218 ± 0.034 for the second.

LKYYACRHCFTTTSKDWHHGGRENILLCTDCRIHFKKYGELP and LKSYACRHCFTTTSKDWHHGGRENILLCTDCRIHFKKYGELP are within error of each other in abundance fitness: -0.205 ± 0.28 for the first, -0.107 ± 0.048 for the second.

Compared with LKFYACRHCFTTTSKDWHHGGRENILLCTDCRIHFKKYGELP, LKWYACRHCFTTTSKDWHHGGRENILLCTDCRIHFKKYGELP is lower in abundance fitness: -0.247 ± 0.084 for the first, -0.391 ± 0.051 for the second.

LKKYACRHCFTTTSKDWHHGGRENILLCTDCRIHFKKYGELP and LKRYACRHCFTTTSKDWHHGGRENILLCTDCRIHFKKYGELP are within error of each other in abundance fitness: -0.146 ± 0.065 for the first, -0.135 ± 0.034 for the second.

LKEYACRHCFTTTSKDWHHGGRENILLCTDCRIHFKKYGELP and LKIYACRHCFTTTSKDWHHGGRENILLCTDCRIHFKKYGELP are within error of each other in abundance fitness: -0.2 ± 0.053 for the first, -0.246 ± 0.053 for the second.

Compared with LKHYACRHCFTTTSKDWHHGGRENILLCTDCRIHFKKYGELP, LKLYACRHCFTTTSKDWHHGGRENILLCTDCRIHFKKYGELP is lower in abundance fitness: -0.058 ± 0.065 for the first, -0.205 ± 0.038 for the second.

LKMYACRHCFTTTSKDWHHGGRENILLCTDCRIHFKKYGELP and LKPYACRHCFTTTSKDWHHGGRENILLCTDCRIHFKKYGELP are within error of each other in abundance fitness: -0.111 ± 0.14 for the first, -0.189 ± 0.036 for the second.

First: LKQYACRHCFTTTSKDWHHGGRENILLCTDCRIHFKKYGELP
Second: LKAYACRHCFTTTSKDWHHGGRENILLCTDCRIHFKKYGELP
The abundance fitness of the first is lower: -0.373 ± 0.067 for the first, -0.047 ± 0.039 for the second.

Compared with LMGYACRHCFTTTSKDWHHGGRENILLCTDCRIHFKKYGELP, LLGYACRHCFTTTSKDWHHGGRENILLCTDCRIHFKKYGELP is lower in abundance fitness: -0.09 ± 0.049 for the first, -0.196 ± 0.049 for the second.

Going from LRGYACRHCFTTTSKDWHHGGRENILLCTDCRIHFKKYGELP to LWGYACRHCFTTTSKDWHHGGRENILLCTDCRIHFKKYGELP, the abundance fitness falls from -0.153 ± 0.034 to -0.401 ± 0.066.

LFGYACRHCFTTTSKDWHHGGRENILLCTDCRIHFKKYGELP and LIGYACRHCFTTTSKDWHHGGRENILLCTDCRIHFKKYGELP are within error of each other in abundance fitness: -0.078 ± 0.083 for the first, -0.241 ± 0.094 for the second.

LEGYACRHCFTTTSKDWHHGGRENILLCTDCRIHFKKYGELP and LTGYACRHCFTTTSKDWHHGGRENILLCTDCRIHFKKYGELP are within error of each other in abundance fitness: -0.038 ± 0.05 for the first, -0.367 ± 0.43 for the second.

Going from LHGYACRHCFTTTSKDWHHGGRENILLCTDCRIHFKKYGELP to LNGYACRHCFTTTSKDWHHGGRENILLCTDCRIHFKKYGELP, the abundance fitness rises from -0.374 ± 0.078 to -0.046 ± 0.048.

Going from LDGYACRHCFTTTSKDWHHGGRENILLCTDCRIHFKKYGELP to LYGYACRHCFTTTSKDWHHGGRENILLCTDCRIHFKKYGELP, the abundance fitness falls from -0.004 ± 0.047 to -0.477 ± 0.08.

Going from LVGYACRHCFTTTSKDWHHGGRENILLCTDCRIHFKKYGELP to LQGYACRHCFTTTSKDWHHGGRENILLCTDCRIHFKKYGELP, the abundance fitness falls from -0.023 ± 0.038 to -0.107 ± 0.041.

First: LPGYACRHCFTTTSKDWHHGGRENILLCTDCRIHFKKYGELP
Second: LGGYACRHCFTTTSKDWHHGGRENILLCTDCRIHFKKYGELP
The abundance fitness of the first is lower: -0.357 ± 0.057 for the first, -0.12 ± 0.041 for the second.

LSGYACRHCFTTTSKDWHHGGRENILLCTDCRIHFKKYGELP and LAGYACRHCFTTTSKDWHHGGRENILLCTDCRIHFKKYGELP are within error of each other in abundance fitness: -0.049 ± 0.048 for the first, -0.116 ± 0.056 for the second.

Variants of: B2
Assay: as above
Settings: Homo sapiens

NMECRVCGDKASGFHYGVHACEGCKGFFRRTIRMKLEYEKCERSCKIQKKNRNKCQYCRFQKCLALGMSHNAIRW and NMECRVCGDKASGFHYGVHACEGCKGFFRRTIRMKLEYEKCERSCKIQKKNRNKCQYCRFQKCLALGMSHNAIRY are within error of each other in abundance fitness: 0.176 ± 0.12 for the first, 0.026 ± 0.072 for the second.

With NMECRVCGDKASGFHYGVHACEGCKGFFRRTIRMKLEYEKCERSCKIQKKNRNKCQYCRFQKCLALGMSHNAIRV the abundance fitness was 0.015 ± 0.062.
